Experiment [1] addresses heme (acquired from hemoglobin resin). Briefly: visible spectroscopy after incubation with hemoglobin resin. To be noted: mean difference before and after incubation with beads, three independent experiments; parent: est. 0.40; read off a plot.
In experiment [2] the target is bovine holo hemoglobin, P01966;P02070. The experiment can be described thus: pull-down (hemoglobin resin, anti-His Western, band intensity quantified). The following applies: three independent pull-down experiments; parent: est. 7.5; read off a plot.

Turning to “apo HphA (hemophilin), N-terminal 6X His tagged, heme stripped by acid-acetone extraction (from UniProt A0A059ZRB8) H43A; H106A”, the response was 0.03 ΔAbsorbance in experiment [1] and 1.5 % of Input in experiment [2].

The record behind these values is paper PMC8560813.
